Source: paper PMC4539205

Key:
[1] = target: recombinant NA (rNA) of avian A/turkey/Turkey/1/2005 (H5N1): 6xHis-tag, tetrabrachion tetramerization domain, two glycines, NA amino acids 51-449 (Staphylothermus marinus | influenza A virus, avian A/turkey/Turkey/1/2005 (H5N1)); experiment: SEC; […], Tris 50 mM, 150 mM NaCl pH 8, CaCl2 10 mM; […]
[2] = target: recombinant NA (rNA) of avian A/turkey/Turkey/1/2005 (H5N1): 6xHis-tag, tetrabrachion tetramerization domain, two glycines, NA amino acids 51-449 (Staphylothermus marinus | influenza A virus, avian A/turkey/Turkey/1/2005 (H5N1)); experiment: negative-stain TEM with single-particle 3D reconstruction
[3] = target: recombinant NA (rNA) of swine A/California/07/2009 (H1N1): 6xHis-tag, tetrabrachion tetramerization domain, two glycines, NA amino acids 71-469 (Staphylothermus marinus | influenza A virus, swine A/California/07/2009 (H1N1)); experiment: SEC; […], Tris 50 mM, 150 mM NaCl pH 8, CaCl2 10 mM; […]

recombinant NA (rNA) of avian A/turkey/Turkey/1/2005 (H5N1): 6xHis-tag, tetrabrachion tetramerization domain, two glycines, NA amino acids 51-449 (enzyme)
stoichiometry N [1]: 4
stoichiometry N [2]: 4

recombinant NA (rNA) of swine A/California/07/2009 (H1N1): 6xHis-tag, tetrabrachion tetramerization domain, two glycines, NA amino acids 71-469 (enzyme)
stoichiometry N [3]: 4
